Measurements taken from the RNAGym collection of RNA variant scans (doi:10.7554/elife.90254).

B1: OR4K15 (parent)
chain: GUUAACGGUCAUAGGCCAUGGAAACUAGGAGCACCAUUUCGCUGCCAGUGAAGAAAUGAACAAAGAAAAUCUGGGCCAGGCAGGCAUCAAAAGAAAUAGUCUUGCGCUCAACCAGAAAGUCUGUAAUCAUUUUAAGGGUA

Variants of: B1
Experiment: self-cleavage, relative activity (ratio to wild type); higher = more cleavage; in vitro, sequencing; the parent is a self-cleaving ribozyme

Variant	self-cleavage
A60U A96G	1.78
U49G G75A	0.09
A68U A126G	0.6
A33G A129U	0.39
A52G U100C	2.01
A13G A47U	1.26
C16U A111G	0.05
U100C U122A	2.11
A36U A117U	0.88
A36U A118G	1.05
A59G C105U	0.17
U3G A110U	1.67
A96G A125G	0.69
A118G U130C	0.73
A30G U37A	1.7
A95G A96U	0.7
A52G A62U	1.2
A33G U108A	0.02
A91U A94G	1.54
U70A U120C	0.41
G20A U72A	0.06
A33G A66U	0.35
A5C U38C	1.28
U102A U122A	1.28

Variant	self-cleavage
A91G C105A	0.03
A94U A135G	2.33
A5C A60G	1.88
U49A A90U	1.26
A118C	0.97
A118G A129G	0.29
A62C A86G	1.15
G50A U100C	2.01
A86U A90G	1.3
U70A C105U	0.16
A33G A95G	1.48
A64G U124C	1.57
U39C C45G	1.5
A22U A69G	1
A96U U130C	1.13
A27U A114U	0.14
U43A A118U	0.9
A47U A69U	1.22
G74U C113U	0.02
A23U A92G	1.46
A51G G79U	0.1
C34U U43A	0.99
U19C A23G	0.88
A60C A117U	0.56

Variant	self-cleavage
U43G A90G	0.51
A33G A51C	0.52
A60G A116U	0.31
A60G A118G	1.07
C76U A117G	0.22
G115A U131C	0.04
A68G A94G	1.34
U70C U127A	0.95
A66G G75A	0.08
A66G G136A	1.72
A22G U120C	0.98
A18G U127A	1.64
A67G A86U	2.13
A98G A126G	0.34
A91G A118U	0.53
G58U G106A	0.01
C40A U122C	1.07
A23U A110U	0.93
A22G A66C	1.49
A89C U120C	0.75
A62G A86U	2.08
U9A A63G	1.23
G44A G65A	0
A24C U100C	1.84

Variant	self-cleavage
A54G A82C	0.13
A96U G106A	0.01
C76U A86U	0.08
G84A A94G	0.98
A52U A96G	1.91
A22G U26C	1.02
A54G A117G	1.68
U72C A82U	0.08
A5G C85U	0.92
G20U U100C	2.46
A36G C112U	0.03
A59C	1.66
A60U G79U	0.08
A56G U108A	0.02
U49C C85G	1.62
A5G A117G	1.51
A11G G14A	1.31
U122C A134G	1.75
A91G A111G	0.01
A47U A82C	0.21
A60G A62G	1
A11U A51G	1.48
A55U A90G	1.36
A55U U100C	2.69

Variant	self-cleavage
A22G A27U	1.2
A55C U102C	1.41
U43A A89G	1.77
U9C U87C	0.96
A33C U57A	1.1
U43A A52G	1.6
G99U A129G	0.13
A11U A90U	1.19
A11G U102A	0.58
A68U U108A	0.05
A27G A140G	1
A59G A116U	0.32
A13G A52G	1.22
A11G A89U	1.34
A5G A36C	1.79
A64C A140U	1.86
A4G A60G	1.27
A86U A91G	1.93
G31A A47G	1
C77U A90G	2.13
U19A U26A	1.58
A18U A59U	0.69
A117C U120A	1.28
A60G A86U	1.44

Variant	self-cleavage
A78U C105U	0.03
A30G U70C	0.75
A24C A47U	0.89
U37A U127C	0.71
G48C U131C	0.69
A78G U120C	0.19
A91G C112U	0.01
A47G A91U	0.76
G21A U102C	2.29
U132A U139C	1.56
A18U U103C	1.29
A13C A51U	1.65
A117G	1.4
C6U A68G	0.79
U49A U103G	0.01
A18G A56G	1.27
U9C U87A	1.98
U9A A82U	0.12
A134G	1.15
A60G G115A	0.04
U43A A82G	0.13
A60U A64G	0.65
A66U G80A	0.05
U9A U102C	1.97

Variant	self-cleavage
G15A U72C	0.37
A90U A134G	1.26
U57C A86G	0.94
U12C U124C	0.67
A52G A118G	1.21
U57C U108A	0.02
A118U A135C	0.3
G75A A92G	0.08
A62G G74A	0.24
A91G A134G	0.97
A23G A86C	1.06
A36G A52G	1.79
A13G C107A	0.19
U39C C81U	0.63
A64U A110G	0.11
A60U G136A	1.51
A62G A63U	1.61
U2A A18G	0.91
G74C	0.19
A63U A98G	0.8
A24G A114U	0.19
U108C U130C	0.01
G44U A63G	1.46
A36C A60G	0.49

Variant	self-cleavage
U3A U139A	1.89
A63G U127G	2.41
A60G G79C	0.07
U70A A116U	0.79
G31C U102C	1.92
U2C A95G	1.53
A36C G48A	1.28
A24U A78G	0.38
C71A A95G	0.88
A5C U108C	0.03
A52G A134G	1.25
A60G A114U	0.06
A54G C76G	0.22
U38C U132C	1.64
A54U U100C	1.43
A11G G29A	0.57
A95G A126G	1.12
C45A A51G	1.35
A67G A94U	1.92
A62G A116U	0.35
G115U U130C	0.07
A51U A98U	2.9
A51G U103A	0.32
A66G G104U	0.02

Variant	self-cleavage
G15U A69G	1.46
C16U G137A	0.85
A13G A66G	0.55
A22G U97C	1.52
A96G G136A	2.06
U12C U100C	1.4
U70C A140G	0.38
A18U A117G	1.72
U39C U100C	2.44
U108C U130G	0
G104A A126G	0.02
A27G A126G	0.8
G7U A13G	1.41
A59G U120C	0.97
C105A U122A	0
C34U G41U	1.82
A89G C101U	0.29
A54G A110U	1.71
A110G A135U	0.12
U9C A33G	1.15
A60G C101A	0.23
A18G G48A	1.81
A36G U39C	0.79
U102C U133C	2.27

Variant	self-cleavage
A33G U49G	0.61
U38A	1.44
A98G U122C	0.34
U9C A110C	0.45
A23G A54U	1.5
C61U A64G	1.63
G48A U72A	0.2
U2A A96G	1.05
C40A A64G	2.37
A22G A114G	0.69
U87A G106C	0.01
A94G A116C	0.24
G21A U120A	1.28
A60G A134G	0.69
G48U A96G	1.28
U49A U131G	1.06
A92G U120C	0.64
A59G G106A	0.02
G104U A140G	0
A13U A24G	1.06
A47U A91U	0.51
U124C A134G	1.11
C40U U108C	0.02
U3C A129G	1.14

Variant	self-cleavage
U87A C88U	1.17
U103A A116G	0.14
U100C U132C	2.14
A55G A56G	1.31
C6U U122C	0.82
G31A A60C	1.95
A92G U102C	1.8
A24G A126U	0.98
G7A A111U	0.04
A47G G84C	0.24
A52G A68U	1.66
A11U U139C	1.23
A59G A117G	1.71
U9C G74U	0.15
A24U U108C	0.02
A47U A64G	0.61
A47G A118U	0.67
A59U A89U	2.6
A68G A78G	0.3
A56G U102C	1.67
U57C G74A	0.28
A78C A98U	0.58
A110G A111U	0.04
A33U A125G	0.99

Variant	self-cleavage
U2C A22G	1.11
U102A	0.74
C61U C85U	0.95
C35U A135G	1.57
A94U	1.08
U9A U120C	0.79
A54G C77U	1.46
A36C U127A	2.57
A64C A116G	0.83
A67U A78C	0.23
G31A U130C	1.91
A64U	1.23
U102C A135G	1.6
A24G U120C	0.35
U39A U97C	1.85
C17A A24G	1.64
A111G U132C	0.03
A33U C112U	0.01
A59G U72A	0.05
A36G U43A	1.27
G41C A135G	1.81
A52U U72C	0.17
U72A U130C	0.13
A24U A95G	1.95

Variant	self-cleavage
A47U U108A	0.01
A51U A96G	1.32
U2A U26C	0.99
A24C U57A	1.21
A62G A129U	0.89
A126C	0.52
A5G A23G	0.8
G20A U97A	2.67
A92U U100C	2.23
U122C A129G	0.46
A54G A64G	1.77
A89G U131C	0.59
U38C U127A	2.78
A36C A59G	1.68
A62C A134G	1.15
U38G U127C	1.37
U37C A117G	1.98
A30G A62G	1.07
G115A A116G	0.23
A13U A117G	2.05
A63G U87G	1.35
G106A A111U	0
A30G C85U	0.69
G1U A33G	0.79

Variant	self-cleavage
A22G A51U	1.24
A18G U131C	1.63
A4G A56U	0.65
A4G U132A	0.44
A30G C40U	0.89
A30G A92U	0.71
A59G U132C	0.46
G53U U127A	1.92
U39A A63G	1.95
A22G C113U	0.14
A24C A62G	1.2
U43A U103C	1.1
A18U U19A	1.53
U87A A114G	0.08
U39C G123A	2.04
G7A U70C	1
U87G U100A	0.06
A52G G83A	1.07
A5G U38A	0.58
A47U A62G	0.82
A5U U102A	1.12
U37C U120A	2.58
